# According to patent publication US20240109972A1, “ANTIBODY AND TAXANE COMBINATION THERAPY” (Genmab A/S, priority 2020, published 2024):
# Assay: GEN1046 in combination with docetaxel in metastatic NSCLC subjects, adverse effects
# Type: in vivo, human
# Experimental: Docetaxel was administered at a dose of 55 mg/m^2 or 75 mg/m^2 depending on the number of prior Dose Limiting Toxicities observed. The maximum tested dose of docetaxel was be 75 mg/m^2.
# Subjects with a histological or cytological diagnosis of non-squamous NSCLC must not have an EGFR-sensitizing mutation and/or ALK translocation/ROS1 rearrangement. EGFR sensitizing mutations are those mutations that are amenable to treatment with an approved TKI. Documentation of EGFR and ALK status should be available per local assessment.
# [1] = GEN1046 in combination with Docetaxel
substance,measurement,setting,value
"GEN1046: PD-L1×4-1BB bispecific antibody: PD-L1-547-FEAL combined with CD137-009-HC7LC2-FEAR (SEQ ID NOs: 1, 5, 21, 19; 8, 12, 22, 20)","Anemia Grade 5, GEN1046-related",GEN1046 + 75 mg/m^2 Docetaxel,0
same,"Blood thyroid stimulating hormone abnormal Grade 1, GEN1046-related",GEN1046 + 75 mg/m^2 Docetaxel,1
same,"Blood thyroid stimulating hormone abnormal Grade 2, GEN1046-related",GEN1046 + 75 mg/m^2 Docetaxel,0
same,"Blood thyroid stimulating hormone abnormal Grade 3, GEN1046-related",GEN1046 + 75 mg/m^2 Docetaxel,0
same,"Blood thyroid stimulating hormone abnormal Grade 4, GEN1046-related",GEN1046 + 75 mg/m^2 Docetaxel,0
same,"Blood thyroid stimulating hormone abnormal Grade 5, GEN1046-related",GEN1046 + 75 mg/m^2 Docetaxel,0
same,"Cough Grade 1, GEN1046-related",GEN1046 + 75 mg/m^2 Docetaxel,1
same,"Cough Grade 2, GEN1046-related",GEN1046 + 75 mg/m^2 Docetaxel,0
same,"Cough Grade 3, GEN1046-related",GEN1046 + 75 mg/m^2 Docetaxel,0
same,"Cough Grade 4, GEN1046-related",GEN1046 + 75 mg/m^2 Docetaxel,0
same,"Cough Grade 5, GEN1046-related",GEN1046 + 75 mg/m^2 Docetaxel,0
same,"Dry mouth Grade 1, GEN1046-related",GEN1046 + 75 mg/m^2 Docetaxel,1
same,"Dry mouth Grade 2, GEN1046-related",GEN1046 + 75 mg/m^2 Docetaxel,0
same,"Dry mouth Grade 3, GEN1046-related",GEN1046 + 75 mg/m^2 Docetaxel,0
same,"Dry mouth Grade 4, GEN1046-related",GEN1046 + 75 mg/m^2 Docetaxel,0
same,"Dry mouth Grade 5, GEN1046-related",GEN1046 + 75 mg/m^2 Docetaxel,0
same,"Dyspnea Grade 1, GEN1046-related",GEN1046 + 75 mg/m^2 Docetaxel,1
same,"Dyspnea Grade 2, GEN1046-related",GEN1046 + 75 mg/m^2 Docetaxel,2
same,"Dyspnea Grade 3, GEN1046-related",GEN1046 + 75 mg/m^2 Docetaxel,0
same,"Dyspnea Grade 4, GEN1046-related",GEN1046 + 75 mg/m^2 Docetaxel,0
same,"Dyspnea Grade 5, GEN1046-related",GEN1046 + 75 mg/m^2 Docetaxel,0
same,"Fatigue Grade 1, GEN1046-related",GEN1046 + 75 mg/m^2 Docetaxel,1
same,"Fatigue Grade 2, GEN1046-related",GEN1046 + 75 mg/m^2 Docetaxel,2
same,"Fatigue Grade 3, GEN1046-related",GEN1046 + 75 mg/m^2 Docetaxel,0
same,"Fatigue Grade 4, GEN1046-related",GEN1046 + 75 mg/m^2 Docetaxel,0
same,"Fatigue Grade 5, GEN1046-related",GEN1046 + 75 mg/m^2 Docetaxel,0
same,"Gastroesophageal reflux disease Grade 1, GEN1046-related",GEN1046 + 75 mg/m^2 Docetaxel,1
same,"Gastroesophageal reflux disease Grade 2, GEN1046-related",GEN1046 + 75 mg/m^2 Docetaxel,0
same,"Gastroesophageal reflux disease Grade 3, GEN1046-related",GEN1046 + 75 mg/m^2 Docetaxel,0
same,"Gastroesophageal reflux disease Grade 4, GEN1046-related",GEN1046 + 75 mg/m^2 Docetaxel,0
same,"Gastroesophageal reflux disease Grade 5, GEN1046-related",GEN1046 + 75 mg/m^2 Docetaxel,0
same,"Hiccups Grade 1, GEN1046-related",GEN1046 + 75 mg/m^2 Docetaxel,0
same,"Hiccups Grade 2, GEN1046-related",GEN1046 + 75 mg/m^2 Docetaxel,1
same,"Hiccups Grade 3, GEN1046-related",GEN1046 + 75 mg/m^2 Docetaxel,0
same,"Hiccups Grade 4, GEN1046-related",GEN1046 + 75 mg/m^2 Docetaxel,0
same,"Hiccups Grade 5, GEN1046-related",GEN1046 + 75 mg/m^2 Docetaxel,0
same,"Hyperglycemia Grade 1, GEN1046-related",GEN1046 + 75 mg/m^2 Docetaxel,1
same,"Hyperglycemia Grade 2, GEN1046-related",GEN1046 + 75 mg/m^2 Docetaxel,0
same,"Hyperglycemia Grade 3, GEN1046-related",GEN1046 + 75 mg/m^2 Docetaxel,1
same,"Hyperglycemia Grade 4, GEN1046-related",GEN1046 + 75 mg/m^2 Docetaxel,0
same,"Hyperglycemia Grade 5, GEN1046-related",GEN1046 + 75 mg/m^2 Docetaxel,0
same,"Lipase increased Grade 1, GEN1046-related",GEN1046 + 75 mg/m^2 Docetaxel,0
same,"Lipase increased Grade 2, GEN1046-related",GEN1046 + 75 mg/m^2 Docetaxel,1
same,"Lipase increased Grade 3, GEN1046-related",GEN1046 + 75 mg/m^2 Docetaxel,0
same,"Lipase increased Grade 4, GEN1046-related",GEN1046 + 75 mg/m^2 Docetaxel,0
same,"Lipase increased Grade 5, GEN1046-related",GEN1046 + 75 mg/m^2 Docetaxel,0
same,"Musculoskeletal chest pain Grade 1, GEN1046-related",GEN1046 + 75 mg/m^2 Docetaxel,0
same,"Musculoskeletal chest pain Grade 2, GEN1046-related",GEN1046 + 75 mg/m^2 Docetaxel,1
same,"Musculoskeletal chest pain Grade 3, GEN1046-related",GEN1046 + 75 mg/m^2 Docetaxel,0
same,"Musculoskeletal chest pain Grade 4, GEN1046-related",GEN1046 + 75 mg/m^2 Docetaxel,0
same,"Musculoskeletal chest pain Grade 5, GEN1046-related",GEN1046 + 75 mg/m^2 Docetaxel,0
same,"Nausea Grade 1, GEN1046-related",GEN1046 + 75 mg/m^2 Docetaxel,0
same,"Nausea Grade 2, GEN1046-related",GEN1046 + 75 mg/m^2 Docetaxel,1
same,"Nausea Grade 3, GEN1046-related",GEN1046 + 75 mg/m^2 Docetaxel,0
same,"Nausea Grade 4, GEN1046-related",GEN1046 + 75 mg/m^2 Docetaxel,0
same,"Nausea Grade 5, GEN1046-related",GEN1046 + 75 mg/m^2 Docetaxel,0
same,"Neutrophil count decreased Grade 1, GEN1046-related",GEN1046 + 75 mg/m^2 Docetaxel,0
same,"Neutrophil count decreased Grade 2, GEN1046-related",GEN1046 + 75 mg/m^2 Docetaxel,0
same,"Neutrophil count decreased Grade 3, GEN1046-related",GEN1046 + 75 mg/m^2 Docetaxel,0
same,"Neutrophil count decreased Grade 4, GEN1046-related",GEN1046 + 75 mg/m^2 Docetaxel,1
same,"Neutrophil count decreased Grade 5, GEN1046-related",GEN1046 + 75 mg/m^2 Docetaxel,0
same,"Palmar plantar erythrodysesthesia Syndrome (PPE) Grade 1, GEN1046-related",GEN1046 + 75 mg/m^2 Docetaxel,1
same,"Palmar plantar erythrodysesthesia Syndrome (PPE) Grade 2, GEN1046-related",GEN1046 + 75 mg/m^2 Docetaxel,0
same,"Palmar plantar erythrodysesthesia Syndrome (PPE) Grade 3, GEN1046-related",GEN1046 + 75 mg/m^2 Docetaxel,0
same,"Palmar plantar erythrodysesthesia Syndrome (PPE) Grade 4, GEN1046-related",GEN1046 + 75 mg/m^2 Docetaxel,0
same,"Palmar plantar erythrodysesthesia Syndrome (PPE) Grade 5, GEN1046-related",GEN1046 + 75 mg/m^2 Docetaxel,0
same,"Pruritus Grade 1, GEN1046-related",GEN1046 + 75 mg/m^2 Docetaxel,1
same,"Pruritus Grade 2, GEN1046-related",GEN1046 + 75 mg/m^2 Docetaxel,0
same,"Pruritus Grade 3, GEN1046-related",GEN1046 + 75 mg/m^2 Docetaxel,0
same,"Pruritus Grade 4, GEN1046-related",GEN1046 + 75 mg/m^2 Docetaxel,0
same,"Pruritus Grade 5, GEN1046-related",GEN1046 + 75 mg/m^2 Docetaxel,0
same,"Total treated subjects with related TEAEs Grade 1, GEN1046-related",GEN1046 + 75 mg/m^2 Docetaxel,4
same,"Total treated subjects with related TEAEs Grade 2, GEN1046-related",GEN1046 + 75 mg/m^2 Docetaxel,4
same,"Total treated subjects with related TEAEs Grade 3, GEN1046-related",GEN1046 + 75 mg/m^2 Docetaxel,2
same,"Total treated subjects with related TEAEs Grade 4, GEN1046-related",GEN1046 + 75 mg/m^2 Docetaxel,1
same,"Total treated subjects with related TEAEs Grade 5, GEN1046-related",GEN1046 + 75 mg/m^2 Docetaxel,0
same,"Vomiting Grade 1, GEN1046-related",GEN1046 + 75 mg/m^2 Docetaxel,1
same,"Vomiting Grade 2, GEN1046-related",GEN1046 + 75 mg/m^2 Docetaxel,0
same,"Vomiting Grade 3, GEN1046-related",GEN1046 + 75 mg/m^2 Docetaxel,0
same,"Vomiting Grade 4, GEN1046-related",GEN1046 + 75 mg/m^2 Docetaxel,0
same,"Vomiting Grade 5, GEN1046-related",GEN1046 + 75 mg/m^2 Docetaxel,0
same,Hepatotoxicity,[1],No reported drug-related hepatoxicities
same,Immune-related toxicities,[1],None reported
same,Serious adverse events related to GEN1046,"dose limiting toxicity period, in combination with Docetaxel",No serious adverse events
same,Dose Limiting Toxicity,with Docetaxel 55 mg/m^2 or 75 mg/m^2,No Dose Limiting Toxicity reported
